Earlier results as cited in paper PMC10931833, “Simultaneous Purification of Human Interferon Alpha-2b and Serum Albumin Using Bioprivileged Fluorinated Ionic Liquid-Based Aqueous Biphasic Systems” (International Journal of Molecular Sciences, 2024).

Settings: ref 44 (IFN-α2b), 91 (BSA), 96 (Lys); cited from earlier work

## lysozyme
  iso-electric point: approximately 11.0
